Data: PMC3604701
pKd: −log10 of the molar value. Where two headings read alike, the source gives them in different places. One block for each substance: values may come before it.

How the values were obtained:
[1] = target: LSD1 (residues 151–852), lysine-specific demethylase 1 (human) (UniProt O60341); assay: ITC
[2] = target: LSD1 (residues 151–852), lysine-specific demethylase 1 (human) (UniProt O60341); assay: ITC; remark: listed apart in the source
[3] = target: LSD1 (residues 151–852), lysine-specific demethylase 1 (human) (UniProt O60341); assay: ITC; remark: listed apart in the source
[4] = target: LSD1 (residues 151–852), lysine-specific demethylase 1 (human) (UniProt O60341); assay: ITC; remark: listed apart in the source
[5] = target: LSD1 (residues 151–852), lysine-specific demethylase 1 (human) (UniProt O60341); assay: ITC; remark: listed apart in the source
[6] = target: LSD1 (residues 151–852), lysine-specific demethylase 1 (human) (UniProt O60341); assay: ITC; remark: listed apart in the source
[7] = target: LSD1 (residues 151–852), lysine-specific demethylase 1 (human) (UniProt O60341); assay: ITC; remark: listed apart in the source
[8] = target: LSD1 (residues 151–852), lysine-specific demethylase 1 (human) (UniProt O60341); assay: ITC; remark: listed apart in the source
[9] = target: LSD1 (residues 151–852), lysine-specific demethylase 1 (human) (UniProt O60341); assay: ITC; remark: listed apart in the source
[10] = target: LSD1 (residues 151–852), lysine-specific demethylase 1 (human) (UniProt O60341); assay: ITC; remark: listed apart in the source
[11] = target: LSD1 (residues 151–852), lysine-specific demethylase 1 (human) (UniProt O60341); assay: ITC; remark: listed apart in the source
[12] = target: LSD1 (residues 151–852), lysine-specific demethylase 1 (human) (UniProt O60341); assay: ITC; remark: listed apart in the source
[13] = target: LSD1 (residues 151–852), lysine-specific demethylase 1 (human) (UniProt O60341); assay: ITC; remark: listed apart in the source
[14] = target: CoREST (RCOR1) residues 286-482 (linker region + SANT2 domain) (UniProt Q9UKL0); assay: ITC; conditions: pH 7.4, 25 °C, no added salt, not stated numerically
Sequence of UniProt Q9UKL0 (Q9UKL0 whole entry, the tested form may be a part): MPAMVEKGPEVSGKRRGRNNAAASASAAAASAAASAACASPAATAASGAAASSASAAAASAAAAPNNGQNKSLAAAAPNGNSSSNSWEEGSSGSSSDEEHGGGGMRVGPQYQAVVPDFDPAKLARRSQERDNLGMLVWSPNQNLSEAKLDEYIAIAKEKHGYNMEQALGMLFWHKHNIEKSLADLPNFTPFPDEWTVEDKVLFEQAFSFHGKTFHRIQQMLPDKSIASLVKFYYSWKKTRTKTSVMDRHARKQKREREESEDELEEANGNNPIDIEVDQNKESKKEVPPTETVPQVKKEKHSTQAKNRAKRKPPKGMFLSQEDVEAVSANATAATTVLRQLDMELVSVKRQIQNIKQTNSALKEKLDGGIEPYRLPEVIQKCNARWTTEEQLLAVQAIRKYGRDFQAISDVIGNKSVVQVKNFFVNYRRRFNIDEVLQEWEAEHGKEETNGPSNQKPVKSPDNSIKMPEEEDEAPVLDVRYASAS

[15] = target: CoREST (RCOR1) residues 286-482 (linker region + SANT2 domain) (UniProt Q9UKL0); assay: ITC; conditions: pH 7.4; 25 °C; no added salt; not stated numerically; 50 mM sodium phosphate
[16] = target: CoREST (RCOR1) residues 286-482 (linker region + SANT2 domain) (UniProt Q9UKL0); assay: SPR; conditions: pH 7.4; no added salt; not stated numerically; 50 mM sodium phosphate
[17] = target: CoREST (RCOR1) residues 286-482 (linker region + SANT2 domain) (UniProt Q9UKL0); assay: ITC; conditions: pH 7.4, no added salt, not stated numerically, 50 mM sodium phosphate

pKd [1]: 8.38 | dH [1]: -35.8 kJ/mol | stoichiometry N [1]: 0.9 | pKd [2]: 8.12 | dH [2]: -65.3 kJ/mol | stoichiometry N [2]: 1 | pKd [3]: 7.67 | dH (ΔHcal) [3]: -52.7 kJ/mol | stoichiometry N [3]: 0.93 | pKd [4]: 7.93 | dH (ΔHcal) [4]: -63.6 kJ/mol | stoichiometry N [4]: 1.01 | pKd [5]: 7.66 | dH [5]: -17.7 kJ/mol | stoichiometry N [5]: 0.99 | pKd [6]: 8.10 | dH [6]: -84.5 kJ/mol | stoichiometry N [6]: 0.97 | pKd [7]: 7.76 | dH (ΔHcal) [7]: -81.6 kJ/mol | stoichiometry N [7]: 1.11 | pKd [8]: 8.23 | dH (ΔHcal) [8]: -72.8 kJ/mol | stoichiometry N [8]: 0.91 | pKd [9]: 8.17 | dH [9]: -54 kJ/mol | stoichiometry N [9]: 1 | pKd [10]: 8.50 | dH [10]: -50.6 kJ/mol | stoichiometry N [10]: 1.01 | pKd [11]: 8.43 | dH [11]: -67.4 kJ/mol | stoichiometry N [11]: 1.03 | Ka [12]: 6.29e+07 M⁻¹ | pKd [12]: 7.80 | dH [12]: -89.1 kJ/mol | stoichiometry N [12]: 1.14 | pKd [13]: 8.07 | dH (ΔHcal) [13]: -45.6 kJ/mol | stoichiometry N [13]: 0.92
Substance: CoREST^286–482 (linker region and SANT2 domain) (domain or fragment)

ΔG ([14]; 50 mM ACES): -42.3 kJ/mol | ΔHcal ([14]; 50 mM ACES): -52.7 kJ/mol | ΔG ([14]; 50 mM HEPES): -45.6 kJ/mol | ΔHcal ([14]; 50 mM HEPES): -63.6 kJ/mol | ΔG ([14]; 50 mM PIPES): -46.9 kJ/mol | ΔHcal ([14]; 50 mM PIPES): -72.8 kJ/mol | ΔG ([14]; 50 mM Tris): -45.2 kJ/mol | ΔHcal ([14]; 50 mM Tris): -45.6 kJ/mol | ΔG ([14]; 50 mM sodium phosphate): -44.4 kJ/mol | ΔHcal ([14]; 50 mM sodium phosphate): -81.6 kJ/mol | ΔG [15]: -48.5 kJ/mol | ΔH [15]: -50.6 kJ/mol | koff [16]: 7.78e-05 s⁻¹ | kon [16]: 56300 M⁻¹ s⁻¹ | ΔG ([17]; 15 °C): -42.3 kJ/mol | Ka ([17]; 25 °C): 6.29e+07 M⁻¹ | ΔG ([17]; 25 °C): -44.4 kJ/mol | ΔH ([17]; 25 °C): -89.1 kJ/mol | ΔG ([17]; 30 °C): -49 kJ/mol | ΔG ([17]; 35 °C): -47.7 kJ/mol
Substance: LSD1 (KDM1A, lysine-specific histone demethylase 1) residues 151-852

pKd [12]: 8.11 | dH [12]: -56.5 kJ/mol | stoichiometry N [12]: 0.96
Substance: linker region^293–380 of CoREST (domain or fragment)
